From patent US20210340232A1, “MONOCLONAL ANTIBODIES AGAINST HUMAN DICKKOPF3 AND USES THEREOF” (Board of Regents, The University of Texas System, priority 2018, published 2021)

What was measured:
BxPC3 cells [1] = experiment: BxPC3 Transwell migration in response to rhDKK3; assay type: cell-based, human; details: BxPC3, rhDKK3 10 μg/ml, 48 hours
Method: (§1) HPSCs and BxPC3 cells were treated with DKK3 mAb clones JM6-6-1 and JM8-12-1 or isotype control mAb or PBS. (FIGS. 5A-B) HPSC apoptosis and migration as measured by FACS and Transwell migration assay at 48 hours. (FIG. 5C) BxPC3 migration in response to rhDKK3 10 μg/ml as measured by Transwell migration assay at 48 hours. (FIG. 5D) BxPC3 resistance to gemcitabine 100 μM as measured by MTS proliferation assay at 6 days. HPSC-CM, pancreatic stellate cell conditioned media, 10 μg/ml. The orthotopic co-injection BxPC3+ HPSC model of PDAC was used to test the efficacy of DKK3 mAb clones JM6-6-1 or JM8-12-1 (5 mg/kg i.p. once every 5 days). (FIG. 5E) Overall tumor progression was measured every 3-4 days by IVIS imaging. (FIG. 5F) Metastatic tumors in the peritoneal cavity after removal of the primary pancreatic tumor are shown by IVIS imaging. (FIG. 5G) Kaplan Meier survival curve showing mice treated with DKK3 mAb clone JM8-12 (right-most line), control mAb (middle line), or PBS (left-most line). (FIG. 5H) KPC mice (P48-Cre; Kras LSL-G12D;Trp53fl/fl) with either wild type DKK3 (solid lines) or deficient in DKK3 (“DKK3-KO,” dashed lines) were treated with DKK3 mAb JM6-6-1 (5 mg/kg i.p. once every 5 days), PBS or control mAb. […]
(§2) Cell-based assays. Cell proliferation was measured by the MTS assay (Promega, Madison, Wis.). […]

BxPC3 cells [2] = experiment: BxPC3 resistance to gemcitabine, MTS proliferation assay; assay type: cell-based, human; details: BxPC3, gemcitabine 100 μM, HPSC-CM 10 μg/ml, 6 days
Method: as §1, §2

[3] = tested on: BxPC3 + HPSC orthotopic tumors; experiment: Orthotopic co-injection BxPC3 + HPSC nude mouse model of PDAC; assay type: in vivo; details: 5 mg/kg i.p. once every 5 days, vs PBS or control mAb
Method: HPSCs and BxPC3 cells were treated with DKK3 mAb clones JM6-6-1 and JM8-12-1 or isotype control mAb or PBS. (FIGS. 5A-B) HPSC apoptosis and migration as measured by FACS and Transwell migration assay at 48 hours. (FIG. 5C) BxPC3 migration in response to rhDKK3 10 μg/ml as measured by Transwell migration assay at 48 hours. (FIG. 5D) BxPC3 resistance to gemcitabine 100 μM as measured by MTS proliferation assay at 6 days. HPSC-CM, pancreatic stellate cell conditioned media, 10 μg/ml. The orthotopic co-injection BxPC3+ HPSC model of PDAC was used to test the efficacy of DKK3 mAb clones JM6-6-1 or JM8-12-1 (5 mg/kg i.p. once every 5 days). (FIG. 5E) Overall tumor progression was measured every 3-4 days by IVIS imaging. (FIG. 5F) Metastatic tumors in the peritoneal cavity after removal of the primary pancreatic tumor are shown by IVIS imaging. (FIG. 5G) Kaplan Meier survival curve showing mice treated with DKK3 mAb clone JM8-12 (right-most line), control mAb (middle line), or PBS (left-most line). (FIG. 5H) KPC mice (P48-Cre; Kras LSL-G12D;Trp53fl/fl) with either wild type DKK3 (solid lines) or deficient in DKK3 (“DKK3-KO,” dashed lines) were treated with DKK3 mAb JM6-6-1 (5 mg/kg i.p. once every 5 days), PBS or control mAb. Kaplan Meier survival curve is shown with hazard ratios (Log-rank test). *p<0.05, **p<0.01, ***p<0.001, ****p<0.0001 vs. control Ab.
An orthotopic nude mouse model of PDAC using BxPC3 cancer cells labeled with firefly luciferase (BxPC3-FL) co-injected with HPSCs has been previously described (Hwang et al., 2008). Mice received intrapancreatic injections of BxPC3-FL (1×10^6 per mouse) with HPSC-shControl or HPSC-shDKK3 in a tumor-to-stroma ratio of 1:0 or 1:3 in 50-μL of HBSS and tumor growth was monitored using IVIS imaging (Hwang et al., 2008). In addition, a syngeneic immunocompetent DKK3 null model was used, provided by Dr. C. Niehrs (Barrantes Idel et al., 2006), that was injected with murine PDAC cells (termed “KPC cells”) isolated from tumors arising in a GEMM of PDAC (Pdx1-Cre; Kras^LSL-G12D;Trp53^R172H/+) (Hingorani et al., 2005; Hingorani et al., 2003) and labeled with luciferase.
The efficacy of DKK3 mAb was tested in vivo using the previously described orthotopic co-implantation nude mouse model of PDAC with human PSCs mixed with luciferase-labeled BxPC3 cancer cells (1:3 tumor:PSC ratio). Mice were treated with either phosphate-buffered saline (PBS), isotype control mAb, or DKK3 mAb (clone JM6-6-1; 5 mg/kg i.p. once every 5 days) and tumor growth was followed with IVIS imaging. […] Tumors in the PBS and control mAb groups grew rapidly from day 22 onward, with an 8-fold increase in the luciferase signal.

murine DKK3 = murine DKK3 (Mus musculus, UniProt Q9QUN9); experiment: Non-denaturing Western blot of recombinant DKK3 with JM6-6-1; assay type: binding
murine DKK3, sequence (Q9QUN9 23-349): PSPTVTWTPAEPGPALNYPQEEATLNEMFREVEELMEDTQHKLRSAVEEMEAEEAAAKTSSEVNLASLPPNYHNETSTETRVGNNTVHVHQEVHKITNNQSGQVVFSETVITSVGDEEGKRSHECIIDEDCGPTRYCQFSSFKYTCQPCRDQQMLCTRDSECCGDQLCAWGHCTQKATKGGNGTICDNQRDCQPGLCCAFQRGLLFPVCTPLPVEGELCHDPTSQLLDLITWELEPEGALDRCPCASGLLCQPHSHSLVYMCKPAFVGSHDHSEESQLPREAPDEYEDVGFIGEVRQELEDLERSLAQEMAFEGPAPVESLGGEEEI
Method: FIGS. 12A-D. DKK3 expression in mouse PSCs and effects of treatment with DKKC mAb on survival. (FIG. 12A) Western blot analysis of recombinant human and mouse DKK3 under denaturing and non-denaturing conditions using JM6-6-1 mAb. (FIG. 12B) Expression of murine DKK3 in murine PSCs (MPSC) or 3T3 cells was determined by RT-PCR. 18S was used as loading control. (FIG. 12C) Proliferation of MPSCs treated with DKK3 mAb was measured at 7 days by MTS assay. ***p<0.001 vs. PBS. (FIG. 12D) Pdx1-Cre; Kras LSL-G12D;Trp53fl/+ model of PDAC was treated with DKK3 mAb JM6-6-1 or control mAb JM4-74 (5 mg/kg i.p. q5d). Kaplan-Meier survival curves are shown (log rank test). At 0% survival, the right line is JM6-6-1, the middle lines is PBS, and the left line is Control Ab.
Human and murine DKK3 share 83% protein sequence homology by BLAST analysis and therefore it was anticipated that it was likely that JM6-6-1 could cross-react with host DKK3. […] When KPC mice (P48-Cre; Kras^LSL-G12D;Trp53^fl/fl) were treated with JM6-6-1 (red solid line, FIG. 5H), median survival increased by 43% from 43 to 61.5 days compared to PBS or isotype control mAb (p=0.005, HR 0.24, 95% CI 0.01-0.30; FIG. 5H).

B1: JM6-6-1: monoclonal antibody against human DKK3; heavy chain variable SEQ ID NO: 19, light chain variable SEQ ID NO: 20 (antibody, V domains shown)
VH: EVKLVESGGGLVKPGGSLKLSCAASGFTFTIEYMAWIRQTPEKRLEWVASISSGGDDIYYADNVKGRFTISRDNAKNTLYLQMSSLKSEDTAIYYCSRSLSDWGQGTTLTVSSAKTTPPSDYPLA
VL: MTQTPLSLPVSLGDQASISCRSSQSILHSNGHTYLEWYLQKPGQSPKLLIYKVSNRFSGVPDRFSGSGSGTDFTLKISRVEAEDLGVYYCFQGSHVPFTFGSGTKLEIERADAAQ
- effect on DKK3-mediated induction of migration (BxPC3 cells [1]): reverse the DKK3-mediated induction of migration
- effect on DKK3-mediated chemoresistance to gemcitabine (BxPC3 cells [2]): abrogated the DKK3-mediated induction of chemoresistance to gemcitabine
- tumor growth by IVIS imaging ([3]; day 22 until day 33): significant inhibition in tumor growth
- lower volume of metastatic disease in peritoneal cavity by luciferase signal [3]: 6.5 fold
- cross-reactivity with murine DKK3 (murine DKK3): recognizes murine DKK3 although more weakly than human DKK3
